Experimental findings from patent US20190300590A1 (PROTAGONIST THERAPEUTICS, published 2019) are described below.

Bridges are numbered along the chain shown (N, C = ends). [ ]: non-standard residue; d: D form. NMeW = CN[C@@H](Cc1c[nH]c2ccccc12)C(=O)O; 1Nal = N[C@@H](Cc1cccc2ccccc12)C(=O)O; NMeH = CN[C@@H](Cc1c[nH]cn1)C(=O)O; AEA = NCCOCC(=O)O; βAla = NCCC(=O)O; Sar = CNCC(=O)O

In general, IC50 refers to the concentration at which inhibition is half-maximal. Lower therefore signals inhibition by little substance.

The test deals with T1, IL23R_huFC (human, UniProt Q5VWK5 24-353).
T1 sequence (looked up): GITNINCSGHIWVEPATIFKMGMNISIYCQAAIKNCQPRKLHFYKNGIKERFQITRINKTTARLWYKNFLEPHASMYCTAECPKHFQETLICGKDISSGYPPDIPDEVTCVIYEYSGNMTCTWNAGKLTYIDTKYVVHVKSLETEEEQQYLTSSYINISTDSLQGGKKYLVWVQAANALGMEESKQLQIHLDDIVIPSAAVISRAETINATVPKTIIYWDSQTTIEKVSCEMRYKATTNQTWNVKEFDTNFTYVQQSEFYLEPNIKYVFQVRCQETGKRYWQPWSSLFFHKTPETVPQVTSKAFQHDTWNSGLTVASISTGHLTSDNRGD
In words: IL23-IL23R competitive ELISA. (ELISA stands for enzyme-linked immunosorbent assay.)

Turning to H-CKDWKCYWHIYG-NH2 (disulfide 1-6 (inferred)) [Hy-CKDWKCYWHIYG-NH2], the IC50 was over 1000 nM.

Ac-CKDWVCYWHTFG-OH (disulfide 1-6 (inferred)) [Ac-CKDWVCYWHTFG-OH] returned an IC50 of over 1000 nM.

For the molecule H-CADWVCYAHTFG-NH2 (disulfide 1-6 (inferred)) [Hy-CADWVCYAHTFG-NH2], the concentration for half-maximal inhibition (IC50) is over 1000 nM.

For the molecule H-CADWCCYWCTFG-NH2 (disulfide (positions not given here); also: disulfide pairing not given here) [Hy-CADWCCYWCTFG-NH2, listing 1 of 3 here], the concentration for half-maximal inhibition (IC50) was over 1000 nM.

CXDWVCYXHTF ([Sarc]; [1-Nal]; disulfide) [Hy-C-[Sarc]-DWVCY-[1-Nal]-HTF-OH]: the IC50 was over 1000 nM.

Molecule CADXVCYWHTFG ([2-Nal]; -NH2; disulfide) [Hy-CAD-[2-Nal]-VCYWHTFG-NH2] showed an IC50 of over 1000 nM.

Take H-CAD[NMeW]VCY[1Nal]HTF-OH (disulfide 1-6 (inferred)) [Hy-CAD-[N-Me-Trp]-VCY-[1-Nal]-HTF-OH]: the half-inhibitory concentration (IC50) is over 1000 nM.

As to H-CQTWVCYWHTYG-NH2 (disulfide 1-6 (inferred)) [Hy-CQTWVCYWHTYG-NH2], the IC50 was over 1000 nM.

B1: Ac-CQTWQCYWR-[Sarc]-NG-[AEA]-[(D)-Lys]-NH2 (peptide)
peptide: Ac-CQTWQCYWR[Sar]NG[AEA][dK]-NH2
modifications: disulfide 1-6
SMILES: CC(=O)N[C@H]1CSSC[C@@H](C(=O)N[C@@H](Cc2ccc(O)cc2)C(=O)N[C@@H](Cc2c[nH]c3ccccc23)C(=O)N[C@@H](CCCNC(=N)N)C(=O)N(C)CC(=O)N[C@@H](CC(N)=O)C(=O)NCC(=O)NCCOCC(=O)N[C@H](CCCCN)C(N)=O)NC(=O)[C@H](CCC(N)=O)NC(=O)[C@H](Cc2c[nH]c3ccccc23)NC(=O)[C@H]([C@@H](C)O)NC(=O)[C@H](CCC(N)=O)NC1=O
B1: the half-maximal inhibitory concentration (IC50) is over 1000 nM.

B2: Hy-CADWVCY-[1-Nal]-[N-Me-His]-TF-OH (peptide)
peptide: H-CADWVCY[1Nal][NMeH]TF-OH
modifications: disulfide 1-6
SMILES: CC(C)[C@@H]1NC(=O)[C@H](Cc2c[nH]c3ccccc23)NC(=O)[C@H](CC(=O)O)NC(=O)[C@H](C)NC(=O)[C@@H](N)CSSC[C@@H](C(=O)N[C@@H](Cc2ccc(O)cc2)C(=O)N[C@@H](Cc2cccc3ccccc23)C(=O)N(C)[C@@H](Cc2c[nH]cn2)C(=O)N[C@H](C(=O)N[C@@H](Cc2ccccc2)C(=O)O)[C@@H](C)O)NC1=O
With B2, the concentration for half-maximal inhibition (IC50) was over 1000 nM.

Turning to H-CGNWECYWHVYG-NH2 (disulfide 1-6 (inferred)) [Hy-CGNWECYWHVYG-NH2], the half-inhibitory concentration (IC50) was over 1000 nM.

Regarding CADXVCYWHTFG ([Tic]; -NH2; disulfide) [Hy-CAD-[Tic]-VCYWHTFG-NH2], the half-maximal inhibitory concentration (IC50) was over 1000 nM.

H-CADWCCYWCTFG-NH2 (disulfide (positions not given here); also: disulfide pairing not given here) [Hy-CADWCCYWCTFG-NH2, listing 2 of 3 here]: the half-maximal inhibitory concentration (IC50) was over 1000 nM.

The molecule H-CADWVCYWHT-NH2 (disulfide 1-6 (inferred)) [Hy-CADWVCYWHT-NH2] had a concentration for half-maximal inhibition (IC50) of over 1000 nM.

The molecule KCADWVCYWHTFG (Ac-; [(D)Lys]; disulfide) [Ac-[(D)Lys]-CADWVCYWHTFG-OH] came in with an IC50 of over 1000 nM.

Molecule H-ACDWCCYWCTFG-NH2 (disulfide (positions not given here); also: disulfide pairing not given here) [Hy-ACDWCCYWCTFG-NH2] showed an IC50 of over 1000 nM.

The molecule CADXVCYWHTFG ([1-Nal]; -NH2; disulfide) [Hy-CAD-[1-Nal]-VCYWHTFG-NH2] had an IC50 of over 1000 nM.

Molecule CADXVCYWHTFG (not fully specified; [1-BIP]; -NH2; disulfide) [Hy-CAD-[1-BIP]-VCYWHTFG-NH2] returned an IC50 of over 1000 nM.

Molecule H-CTDWVCYWHEYS-NH2 (disulfide 1-6 (inferred)) [Hy-CTDWVCYWHEYS-NH2] returned a concentration for half-maximal inhibition (IC50) of over 1000 nM.

As for H-CRTWVCYWHVFG-NH2 (disulfide 1-6 (inferred)) [Hy-CRTWVCYWHVFG-NH2], the IC50 was over 1000 nM.

Ac-[dK]SCADWVCYWHTFG-OH (disulfide 3-8 (inferred)) [Ac-[(D)Lys]-SCADWVCYWHTFG-OH] had an IC50 of over 1000 nM.

The molecule H-[βAla]SCADWVCYWHTFG-OH (disulfide 3-8 (inferred)) [Hy-[β-Ala]-SCADWVCYWHTFG-OH] yielded an IC50 of over 1000 nM.

In turn, KACADWVCYWHTFG (Ac-; [(D)Lys]; [β-Ala]; disulfide) [Ac-[(D)Lys]-[β-Ala]-CADWVCYWHTFG-OH] returned a half-maximal inhibitory concentration (IC50) of over 1000 nM.

On to CADWVCYXHTFG (not fully specified; [1-BIP]; -NH2; disulfide) [Hy-CADWVCY-[1-BIP]-HTFG-NH2], for which the IC50 was over 1000 nM.

B3: Ac-CADWVCY-[1-Nal]-H-[b-Ala]-FG-NH2 (peptide)
peptide: Ac-CADWVCY[1Nal]H[βAla]FG-NH2
modifications: disulfide 1-6
SMILES: CC(=O)N[C@H]1CSSC[C@@H](C(=O)N[C@@H](Cc2ccc(O)cc2)C(=O)N[C@@H](Cc2cccc3ccccc23)C(=O)N[C@@H](Cc2c[nH]cn2)C(=O)NCCC(=O)N[C@@H](Cc2ccccc2)C(=O)NCC(N)=O)NC(=O)[C@H](C(C)C)NC(=O)[C@H](Cc2c[nH]c3ccccc23)NC(=O)[C@H](CC(=O)O)NC(=O)[C@H](C)NC1=O
Consider B3, for which the IC50 is over 1000 nM.

B4: Ac-CADWVCY-[1-Nal]-FTFG-NH2 (peptide)
peptide: Ac-CADWVCY[1Nal]FTFG-NH2
modifications: disulfide 1-6
SMILES: CC(=O)N[C@H]1CSSC[C@@H](C(=O)N[C@@H](Cc2ccc(O)cc2)C(=O)N[C@@H](Cc2cccc3ccccc23)C(=O)N[C@@H](Cc2ccccc2)C(=O)N[C@H](C(=O)N[C@@H](Cc2ccccc2)C(=O)NCC(N)=O)[C@@H](C)O)NC(=O)[C@H](C(C)C)NC(=O)[C@H](Cc2c[nH]c3ccccc23)NC(=O)[C@H](CC(=O)O)NC(=O)[C@H](C)NC1=O
On to B4, for which the 50% inhibitory concentration (IC50) is over 1000 nM.

B5: Ac-CADWVCY-[1-Nal]-H-[(D)Ala]-FG-NH2 (peptide)
peptide: Ac-CADWVCY[1Nal]H[dA]FG-NH2
modifications: disulfide 1-6
SMILES: CC(=O)N[C@H]1CSSC[C@@H](C(=O)N[C@@H](Cc2ccc(O)cc2)C(=O)N[C@@H](Cc2cccc3ccccc23)C(=O)N[C@@H](Cc2c[nH]cn2)C(=O)N[C@H](C)C(=O)N[C@@H](Cc2ccccc2)C(=O)NCC(N)=O)NC(=O)[C@H](C(C)C)NC(=O)[C@H](Cc2c[nH]c3ccccc23)NC(=O)[C@H](CC(=O)O)NC(=O)[C@H](C)NC1=O
Regarding B5, the concentration for half-maximal inhibition (IC50) was over 1000 nM.

B6: Ac-CADWVCY-[1-Nal]-[(D)Ala]-TFG-NH2 (peptide)
peptide: Ac-CADWVCY[1Nal][dA]TFG-NH2
modifications: disulfide 1-6
SMILES: CC(=O)N[C@H]1CSSC[C@@H](C(=O)N[C@@H](Cc2ccc(O)cc2)C(=O)N[C@@H](Cc2cccc3ccccc23)C(=O)N[C@H](C)C(=O)N[C@H](C(=O)N[C@@H](Cc2ccccc2)C(=O)NCC(N)=O)[C@@H](C)O)NC(=O)[C@H](C(C)C)NC(=O)[C@H](Cc2c[nH]c3ccccc23)NC(=O)[C@H](CC(=O)O)NC(=O)[C@H](C)NC1=O
The molecule B6 displayed an IC50 of over 1000 nM.

Take CADWVCYXHTFG ([Tic]; -NH2; disulfide) [Hy-CADWVCY[Tic]-HTFG-NH2]: the IC50 is over 1000 nM.

Turning to H-AADWCAYWCTFG-NH2 (disulfide 5-9 (inferred)) [Hy-AADWCAYWCTFG-NH2], the IC50 was over 1000 nM.

H-CADWVCYWHTF-NH2 (disulfide 1-6 (inferred)) [Hy-CADWVCYWHTF-NH2] had a half-inhibitory concentration (IC50) of over 1000 nM.

For the molecule H-CSDWRCYWHVFG-NH2 (disulfide 1-6 (inferred)) [Hy-CSDWRCYWHVFG-NH2], the concentration for half-maximal inhibition (IC50) was over 1000 nM.

H-CHTWVCYWHEFS-NH2 (disulfide 1-6 (inferred)) [Hy-CHTWVCYWHEFS-NH2] came in with a 50% inhibitory concentration (IC50) of over 1000 nM.

In the case of H-CADWVCY[1Nal]HTF-OH (disulfide 1-6 (inferred)) [Hy-CADWVCY-[1-Nal]-HTF-OH], the IC50 was over 1000 nM.

H-CQSWECYWHYYG-NH2 (disulfide 1-6 (inferred)) [Hy-CQSWECYWHYYG-NH2] displayed an IC50 of over 1000 nM.

For the molecule H-CSDWECYWHIFG-NH2 (disulfide 1-6 (inferred)) [Hy-CSDWECYWHIFG-NH2], the concentration for half-maximal inhibition (IC50) is over 1000 nM.

The molecule H-ACDWVCYWHTFG-NH2 (disulfide 2-6 (inferred)) [Hy-ACDWVCYWHTFG-NH2] registered a concentration for half-maximal inhibition (IC50) of over 1000 nM.

In the case of H-CETWECYWHSFS-NH2 (disulfide 1-6 (inferred)) [Hy-CETWECYWHSFS-NH2], the 50% inhibitory concentration (IC50) was over 1000 nM.

In the case of H-CADWCCYWCTFG-NH2 (disulfide (positions not given here); also: disulfide pairing not given here) [Hy-CADWCCYWCTFG-NH2, listing 3 of 3 here], the IC50 was over 1000 nM.
